Measurements reported in the supplement of paper PMC10567573.

B1: CHIT1 (parent)
chain: CSWKGATKQRIQDQKVPYIFRDNQ

Variants of: B1
Assay: protein stability index of a GFP-peptide fusion (GPS, HEK-293T) (PSI 1-6); higher = more stable
Conditions: c terminus: a fixed tail appended
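Also: lentivirally expressed fusions sorted by FACS into six bins by GFP to DsRed ratio, PSI derived from sequencing read proportions per bin multiplied by bin number.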

Protein stability index, by site and new letter:
Q12: D 3.08 | I 2.02 | S 2.6 | T 2.9 | H 2.09 | L 2.18 | N 2.28 | E 2.45 | P 2.78 | R 1.83 | Y 2.38 | G 2.31 | M 3.82 | F 1.69 | A 2.67 | W 1.12
T7: V 2.42 | K 2.4 | F 2.68 | M 2.28 | I 2.3 | W 1.12 | D 3.29 | L 2.52 | P 2.74 | N 2.62 | S 3.32 | Q 2.89 | C 2.29 | E 3.41 | Y 3.94 | H 2.91 | G 2.77 | R 2.75 | A 2.51
R10: M 2.6 | W 1.67 | C 2.63 | K 2.67 | P 2.47 | T 3.68 | V 2.43 | H 2.94 | S 2.81 | D 2.71 | A 3.57 | N 3.46 | Y 2.54 | F 2.5 | L 2.41 | I 1.64 | G 2.38 | Q 2.8 | E 3.87
D13: E 2.52 | A 2.81 | C 2.47
I11: N 2.56 | D 3.74 | Q 3.54 | T 2.66 | H 3.42 | W 2.07 | L 3.14 | P 2.1 | G 2.32 | K 2.69 | E 3.33 | V 2.98 | R 3.15 | S 3.01 | F 2.44 | M 2.5 | A 2.85 | C 2.3 | Y 2.51
K4: H 3.06 | T 2.49 | G 2.68 | L 1.84 | E 2.43 | Q 3.06 | W 2.12 | D 2.7 | S 2.6 | V 1.94 | F 1.26 | I 2.04 | R 2.75 | N 2.5 | Y 2.2 | M 2.6 | P 3.33
Q9: K 2.44 | C 1.07 | I 2.92 | M 2.29 | P 2.25 | G 2.88 | H 2.66 | S 2.57 | A 2.5 | F 1.94 | T 2.8 | N 2.62 | V 2.44 | E 2.42 | Y 2.17 | W 1.39 | R 2.37 | L 1.78 | D 2.58
G5: S 3.28 | I 2.11 | M 2.02 | P 2.38 | V 2.32 | H 2.59 | W 3.45 | N 2.69 | K 2.79 | T 2.53 | F 1.37 | E 3.34 | L 2.77 | R 2.38 | C 1.57 | D 2.67 | Y 2.12
A6: E 2.79 | P 3.05 | G 1.82 | I 2.32 | Q 2.54 | Y 2.31 | K 2.23 | R 2.73 | F 2.14 | N 2.83 | S 2.4 | L 2.43 | T 2.27 | V 2.25 | W 4.23 | H 2.51 | M 2.64 | C 2.06 | D 3.47
K8: A 2.58 | P 2.23 | F 2.21 | M 2.01 | W 2.03 | T 2.07 | Y 2.4 | H 2.53 | S 2.44 | V 3.23 | Q 2.12 | G 2.95 | E 3.19 | N 2.54 | D 2.59 | C 1.76 | R 2.81 | L 2.77 | I 2.15
